The values below come from patent publication US20110113865A1, “USING CARDIAC TROPONIN FOR MONITORING ANTI-ANGIOGENESIS THERAPY” (priority 2008, published 2011).

In one series the test system is acute coronary syndromes. Particulars: treated patients; Annals of Oncology 2007; cited from earlier work.
For series [1] the following is noted: Smith 2000; cited from earlier work.
For series [2] the following is noted: 48 hours at room temperature or at 4° Celsius; cited from earlier work.
Another series concerns cardiovascular system. Particulars: human, in vivo. As for the experimental part:
Three years later, advanced colorectal cancer is diagnosed necessitating a suitable cancer therapy. The left ventricular ejection fraction (LVEF) is determined by echocardiography (40%) indicating a minor systolic dysfunction. Moreover, the amounts of a troponin T (12 pg/ml) and NT-proBNP (510 pg/ml) are determined in a sample of the patient. The patient is subjected to a cardiac stress test showing that a region of the posterior myocardial wall has a dysfunctional contractility (reversible perfusion defects). Coronary angiography is carried out indicating 80% stenosis of the artery that supplies the region of dysfunctional contractility with blood. Two weeks after successful revascularization of the affected myocardial regions, troponin T (6 pg/ml) and NT-proBNP (180 pg/ml) are determined again. A therapy with VEGF-inhibitors is started; troponin T and NT-proBNP are measured monthly. During the therapy with VEGF-inhibitors the levels of these two biomarkers remain stable. Also, the therapy is effective indicated by a reduced tumor size as well as by reduced CEA levels (carcinoembryonic antigen). […] Examples are shown herein below.

A further series has as its system troponin T. The following applies: human, in vivo.
The test system of a further series is NT-proBNP. The following applies: human, in vivo.
Series [3] deals with troponin T and/or NT-proBNP. In words: Levels of troponin T and/or NT-proBNP before and during therapy in 27 patients. The format is in vivo, human. The text has this: Examples are shown herein below.
Series [4] has as its system metastatic colorectal cancer. Particulars: cited from earlier work.

For the molecule `CNC(=O)c1cc(Oc2ccc(NC(=O)Nc3ccc(Cl)c(C(F)(F)F)c3)cc2)ccn1` [sorafenib], the “patients with induced acute coronary syndromes” value in the series on acute coronary syndromes is recorded as 2.9%.

“BNP: Brain Natriuretic Peptide, active hormone, 32 amino acids”: the in-vivo half-life in series [1] was 0.333 h. Moreover, the “concentration loss on storage” value in series [2] is listed as “at least 20%”.

Consider “Bevacizumab: monoclonal antibody against the vascular endothelial growth factor (VEGF)”, for which the “adverse side effects on the cardiovascular system” value in the series on cardiovascular system is “no adverse side effects on the cardiovascular system”. Moreover, the “change of troponin T during treatment” value in the series on troponin T was “further increase of troponin T”. The NT-proBNP level in the series on NT-proBNP came to 1916 pg/mL. Also, the “patients in whom the levels of the markers remained unchanged (no significant increase)” value in series [3] (27 patients, serum, before vs during therapy) was “more than 80%”. Also, the “change of the measured markers (Troponin T and NT-proBNP)” value in series [3] (patient 4208, day 13 vs day 57 after therapy start) was “Significant increases”. Also, the survival result in series [4] is on record as “significantly improves survival”.

B1: NT-proBNP: N-terminal pro peptide of proBNP, 76 amino acids (protein, UniProt P16860 27-102, looked up)
NT-proBNP: HPLGSPGSASDLETSGLQEQRNHLQGKLSELQVEQTSLEPLQESPRPTGVWKSREVATEGIRGHRKMVLYTLRAPR
modifications: NT-proBNP
notes: N-terminal pro peptide of proBNP, 76 amino acids
Regarding B1, the in-vivo half-life in series [1] is 2 h.
